Assay results: the supplement of paper PMC12855868

B1: library; numbered along this chain (parent)
chain: MAAAGGARLLRAASAVLGGPAGRWLHHAGSRAGSSGLLRNRGPGGSAEASRSLSVSARARSSSEDKITVHFINRDGETLTTKGKVGDSLLDVVVENNLDIDGFGACEGTLACSTCHLIFEDHIYEKLDAITDEENDMLDLAYGLTDRSRLGCQICLTKSMDNMTVRVPETVADARQSIDVGKTS

Variants of: B1
Assay: scaled log2 fold change in cell abundance, elesclomol vs control (0 = silent mean, 1 = nonsense mean) (scaled log2 ratio); higher = higher viability under elesclomol (loss of FDX1 cuproptosis function)
Conditions: glucose 10 mM
[1] = with ABC1 FDX1 KO, elesclomol 5 nM, 14 days
[2] = with HEK293T FDX1 KO, elesclomol 40 nM, 11 days
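Further: variant abundance is its share of total variant reads in each endpoint sample, from next-generation sequencing of the integrated ORF PCR-amplified out of genomic DNA.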

Variant	scaled log2 fold change [1]	scaled log2 fold change [2]
MAAAGGARLLRAASAVLGGPAGRWLHHAGSRAGSSGLLRNRGPGGSAEASRSLSVSARARSSSEDKITVHFINRDGEYLTTKGKVGDSLLDVVVENNLDIDGFGACEGTLACSTCHLIFEDHIYEKLDAITDEENDMLDLAYGLTDRSRLGCQICLTKSMDNMTVRVPETVADARQSIDVGKTS [T78Y]	-0.386	-0.209
MAAAGGARLLRAASAVLGGPAGRWLHHAGSRAGSSGLLRNRGPGGSAEASRSLSVSARARSSSEDKITVHFINRDGEVLTTKGKVGDSLLDVVVENNLDIDGFGACEGTLACSTCHLIFEDHIYEKLDAITDEENDMLDLAYGLTDRSRLGCQICLTKSMDNMTVRVPETVADARQSIDVGKTS [T78V]	0.108	-0.249
MAAAGGARLLRAASAVLGGPAGRWLHHAGSRAGSSGLLRNRGPGGSAEASRSLSVSARARSSSEDKITVHFINRDGEWLTTKGKVGDSLLDVVVENNLDIDGFGACEGTLACSTCHLIFEDHIYEKLDAITDEENDMLDLAYGLTDRSRLGCQICLTKSMDNMTVRVPETVADARQSIDVGKTS [T78W]	-0.127	-0.938
MAAAGGARLLRAASAVLGGPAGRWLHHAGSRAGSSGLLRNRGPGGSAEASRSLSVSARARSSSEDKITVHFINRDGETFTTKGKVGDSLLDVVVENNLDIDGFGACEGTLACSTCHLIFEDHIYEKLDAITDEENDMLDLAYGLTDRSRLGCQICLTKSMDNMTVRVPETVADARQSIDVGKTS [L79F]	0.0893	-0.166
MAAAGGARLLRAASAVLGGPAGRWLHHAGSRAGSSGLLRNRGPGGSAEASRSLSVSARARSSSEDKITVHFINRDGETATTKGKVGDSLLDVVVENNLDIDGFGACEGTLACSTCHLIFEDHIYEKLDAITDEENDMLDLAYGLTDRSRLGCQICLTKSMDNMTVRVPETVADARQSIDVGKTS [L79A]	0.253	0.232
MAAAGGARLLRAASAVLGGPAGRWLHHAGSRAGSSGLLRNRGPGGSAEASRSLSVSARARSSSEDKITVHFINRDGETPTTKGKVGDSLLDVVVENNLDIDGFGACEGTLACSTCHLIFEDHIYEKLDAITDEENDMLDLAYGLTDRSRLGCQICLTKSMDNMTVRVPETVADARQSIDVGKTS [L79P]	0.634	0.299
MAAAGGARLLRAASAVLGGPAGRWLHHAGSRAGSSGLLRNRGPGGSAEASRSLSVSARARSSSEDKITVHFINRDGETKTTKGKVGDSLLDVVVENNLDIDGFGACEGTLACSTCHLIFEDHIYEKLDAITDEENDMLDLAYGLTDRSRLGCQICLTKSMDNMTVRVPETVADARQSIDVGKTS [L79K]	0.0188	0.977
MAAAGGARLLRAASAVLGGPAGRWLHHAGSRAGSSGLLRNRGPGGSAEASRSLSVSARARSSSEDKITVHFINRDGETETTKGKVGDSLLDVVVENNLDIDGFGACEGTLACSTCHLIFEDHIYEKLDAITDEENDMLDLAYGLTDRSRLGCQICLTKSMDNMTVRVPETVADARQSIDVGKTS [L79E]	0.0989	-0.00345
MAAAGGARLLRAASAVLGGPAGRWLHHAGSRAGSSGLLRNRGPGGSAEASRSLSVSARARSSSEDKITVHFINRDGETGTTKGKVGDSLLDVVVENNLDIDGFGACEGTLACSTCHLIFEDHIYEKLDAITDEENDMLDLAYGLTDRSRLGCQICLTKSMDNMTVRVPETVADARQSIDVGKTS [L79G]	0.145	1.18
MAAAGGARLLRAASAVLGGPAGRWLHHAGSRAGSSGLLRNRGPGGSAEASRSLSVSARARSSSEDKITVHFINRDGETHTTKGKVGDSLLDVVVENNLDIDGFGACEGTLACSTCHLIFEDHIYEKLDAITDEENDMLDLAYGLTDRSRLGCQICLTKSMDNMTVRVPETVADARQSIDVGKTS [L79H]	-0.594	0.119
MAAAGGARLLRAASAVLGGPAGRWLHHAGSRAGSSGLLRNRGPGGSAEASRSLSVSARARSSSEDKITVHFINRDGETCTTKGKVGDSLLDVVVENNLDIDGFGACEGTLACSTCHLIFEDHIYEKLDAITDEENDMLDLAYGLTDRSRLGCQICLTKSMDNMTVRVPETVADARQSIDVGKTS [L79C]	0.0853	-0.242
MAAAGGARLLRAASAVLGGPAGRWLHHAGSRAGSSGLLRNRGPGGSAEASRSLSVSARARSSSEDKITVHFINRDGETMTTKGKVGDSLLDVVVENNLDIDGFGACEGTLACSTCHLIFEDHIYEKLDAITDEENDMLDLAYGLTDRSRLGCQICLTKSMDNMTVRVPETVADARQSIDVGKTS [L79M]	-0.15	-0.649
MAAAGGARLLRAASAVLGGPAGRWLHHAGSRAGSSGLLRNRGPGGSAEASRSLSVSARARSSSEDKITVHFINRDGETNTTKGKVGDSLLDVVVENNLDIDGFGACEGTLACSTCHLIFEDHIYEKLDAITDEENDMLDLAYGLTDRSRLGCQICLTKSMDNMTVRVPETVADARQSIDVGKTS [L79N]	0.26	0.247
MAAAGGARLLRAASAVLGGPAGRWLHHAGSRAGSSGLLRNRGPGGSAEASRSLSVSARARSSSEDKITVHFINRDGETQTTKGKVGDSLLDVVVENNLDIDGFGACEGTLACSTCHLIFEDHIYEKLDAITDEENDMLDLAYGLTDRSRLGCQICLTKSMDNMTVRVPETVADARQSIDVGKTS [L79Q]	-0.224	-0.128
MAAAGGARLLRAASAVLGGPAGRWLHHAGSRAGSSGLLRNRGPGGSAEASRSLSVSARARSSSEDKITVHFINRDGETDTTKGKVGDSLLDVVVENNLDIDGFGACEGTLACSTCHLIFEDHIYEKLDAITDEENDMLDLAYGLTDRSRLGCQICLTKSMDNMTVRVPETVADARQSIDVGKTS [L79D]	0.287	-0.0667
MAAAGGARLLRAASAVLGGPAGRWLHHAGSRAGSSGLLRNRGPGGSAEASRSLSVSARARSSSEDKITVHFINRDGETITTKGKVGDSLLDVVVENNLDIDGFGACEGTLACSTCHLIFEDHIYEKLDAITDEENDMLDLAYGLTDRSRLGCQICLTKSMDNMTVRVPETVADARQSIDVGKTS [L79I]	-0.0225	-0.761
